According to paper PMC6688928:

Experiments:
[1] = target: FLAG-NaVAb E96C/Q150C (Hi5 cells, crosslinking assay) (UniProt A8EVM5); assay: cross-linking
[2] = target: FLAG-NaVAb KAV/G94C/Q150C (Hi5 cells, crosslinking assay) (UniProt A8EVM5); assay: cross-linking
[3] = target: MBP-NaVAb/KAV/G94C/Q150C, disulfide-crosslinked (UniProt A8EVM5); assay: cryo-EM structure
[4] = target: MBP-NaVAb/KAV/G94C/Q150C, disulfide-crosslinked (UniProt A8EVM5); assay: cross-linking
[5] = target: FLAG-NaVAb G94C/Q150C (Hi5 cells, crosslinking assay) (UniProt A8EVM5); assay: cross-linking
[6] = target: FLAG-NaVAb V100C/Q150C (Hi5 cells, crosslinking assay) (UniProt A8EVM5); assay: cross-linking
[7] = target: FLAG-NaVAb KAV/E96C/Q150C (Hi5 cells, crosslinking assay) (UniProt A8EVM5); assay: cross-linking
[8] = target: NaVAb/V100C/Q150C Δ28, disulfide-crosslinked; assay: cross-linking

“FLAG-NaVAb E96C/Q150C (Hi5 cells, crosslinking assay) (from UniProt A8EVM5 1-267) (natural protein)” gave a percent formation of disulfide-crosslinked tetramers [1] of 40% and a stoichiometry N [1] of 4.
Work on “FLAG-NaVAb KAV/G94C/Q150C (Hi5 cells, crosslinking assay) (from UniProt A8EVM5 1-267) (natural protein)” yielded a percent crosslinked in tetramers [2] of 80% and a stoichiometry N [2] of 4.
For “MBP-NaVAb/KAV/G94C/Q150C, disulfide-crosslinked (from UniProt A8EVM5 5-267) (natural protein)”, the stoichiometry N [3] was 4 and the stoichiometry N [4] was 4.
For “FLAG-NaVAb G94C/Q150C (Hi5 cells, crosslinking assay) (from UniProt A8EVM5 1-267) (natural protein)”, the percent formation of disulfide-crosslinked tetramers [5] was 20% and the stoichiometry N [5] was 4.
Substance “FLAG-NaVAb V100C/Q150C (Hi5 cells, crosslinking assay) (from UniProt A8EVM5 1-267) (natural protein)” has a percent formation of disulfide-crosslinked tetramers [6] of 80% and a stoichiometry N [6] of 4.
“FLAG-NaVAb KAV/E96C/Q150C (Hi5 cells, crosslinking assay) (from UniProt A8EVM5 1-267) (natural protein)” was tested, and the percent crosslinked in tetramers [7] was 80% and the stoichiometry N [7] was 4.
Work on “NaVAb/V100C/Q150C Δ28, disulfide-crosslinked (domain or fragment)” yielded a stoichiometry N [8] of 4.
